This note sets out measurements from patent US7167802.

The test system of data set [1] is MK2 41-400 (unphosphorylated).
In data set [2] the test system is MK2 41-364 (unphosphorylated, constitutively active).

Chain of MK2 41-400 (unphosphorylated) (chain, as listed by the source): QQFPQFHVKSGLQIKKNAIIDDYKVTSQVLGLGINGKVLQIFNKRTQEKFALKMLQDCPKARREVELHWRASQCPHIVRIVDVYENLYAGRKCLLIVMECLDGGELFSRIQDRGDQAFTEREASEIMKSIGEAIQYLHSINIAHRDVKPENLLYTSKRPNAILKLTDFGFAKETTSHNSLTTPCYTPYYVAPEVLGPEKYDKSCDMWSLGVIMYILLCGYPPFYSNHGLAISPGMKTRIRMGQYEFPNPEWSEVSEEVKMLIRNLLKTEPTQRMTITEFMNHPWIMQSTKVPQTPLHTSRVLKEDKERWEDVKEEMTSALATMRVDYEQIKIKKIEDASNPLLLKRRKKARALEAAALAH

Consider Activated p38 MAP kinase, for which, in data set [1], the Vmax of the MK2 construct after activation by p38 (no activity without p38) was found to be 8.9 µmol/min/mg. Moreover, the Vmax of the MK2 construct after activation by p38 (0.076 without p38) in data set [2] stood at 11 µmol/min/mg.
